From patent US20110263454A1, “Methods of Identifying Functional Characteristics of Promoters, Transcription Modifying Proteins and Transcription Modulating Agents” (Salk Institute for Biological Studies, priority 2008, published 2011)

Assays:
mDio2 promoter = assay: NHR-promoter luciferase screen, mDio2 promoter; assay type: cell-based, mouse; details: for Luc. act., normalized to lacZ / Normalized Luc. act., normalized to control: Dio2, HR component without or with its ligand; for mDio2 promoter reporter activity: transcription factor +/- ligand, control = 1.00
Outline: (§1)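 CV-1 cells were co-transfected with 50 ng NHR (homodimer or NHR/RXR heterodimer), 100 ng promoter-luciferase construct and 50 ng LacZ. Luciferase was normalized to LacZ and to a no-NHR/no-ligand control.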

mPer1 promoter = assay: NHR-promoter luciferase screen, mPer1 promoter; assay type: cell-based, mouse; details: for Luc. act., normalized to lacZ / Normalized Luc. act., normalized to control: Per1 promoter reporter, co-transfected HR, with or without its ligand; for Normalized Luc. act., normalized to control: relative to control; for luciferase activity normalized to lacZ activity and to a control, mPer1: mPer1 promoter-luciferase, CV-1 cells, NHR +/- ligand, control = 1.00
Outline: as §1

RevErba promoter = assay: NHR-promoter luciferase screen, RevErba (RVRa) promoter; assay type: cell-based; design: key to mRevErba promoter reporter activity / Normalized Luc. act., normalized to control: luciferase activity normalized to lacZ and to control (no NHR/ligand); details: for Luc. act., normalized to lacZ / Normalized Luc. act., normalized to control / negative reciprocal of normalized Luc. act. (fold repression; Table 33) / normalized Luc. act. on a logarithmic scale (column without head, Table 33): RVRa promoter; for Luc. act., normalized to lacZ / Normalized Luc. act., normalized to control: HR component without or with ligand; for negative reciprocal of normalized Luc. act. (fold repression; Table 33): given only where activity is below control; for normalized Luc. act. on a logarithmic scale (column without head, Table 33): log10 of activity normalized to control; for mRevErba promoter reporter activity: transcription factor +/- ligand, control = 1.00
Outline: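 CV-1 cells co-transfected with NHR (pcDNA3.1, C-terminal V5H6 tag) as homodimer or RXR heterodimer, RevErbα promoter–luciferase reporter and LacZ transfection control; ligand added where applicable. Luciferase normalized to LacZ and to no-NHR/no-ligand control.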

mADRP promoter = assay: NHR-promoter luciferase screen, mADRP promoter; assay type: cell-based, mouse; details: for Luc. act., normalized to lacZ / Normalized Luc. act., normalized to control: ADRP promoter, HR/ligand component; for mADRP promoter reporter activity: transcription factor +/- ligand, control = 1.00
Outline: as §1

hMDR1 promoter = assay: NHR-promoter luciferase screen, hMDR1 promoter; assay type: cell-based, human; details: for Luc. act., normalized to lacZ / Normalized Luc. act., normalized to control: MDR1 promoter, HR/ligand component; for hMDR1 promoter reporter activity: transcription factor +/- ligand, control = 1.00
Outline: as §1

B1: CTF1: COUP-TF1 (NR2F1), cDNA driver (protein, UniProt P10589 1-423, looked up)
COUP transcription factor 1: MAMVVSSWRDPQDDVAGGNPGGPNPAAQAARGGGGGAGEQQQQAGSGAPHTPQTPGQPGAPATPGTAGDKGQGPPGSGQSQQHIECVVCGDKSSGKHYGQFTCEGCKSFFKRSVRRNLTYTCRANRNCPIDQHHRNQCQYCRLKKCLKVGMRREAVQRGRMPPTQPNPGQYALTNGDPLNGHCYLSGYISLLLRAEPYPTSRYGSQCMQPNNIMGIENICELAARLLFSAVEWARNIPFFPDLQITDQVSLLRLTWSELFVLNAAQCSMPLHVAPLLAAAGLHASPMSADRVVAFMDHIRIFQEQVEKLKALHVDSAEYSCLKAIVLFTSDACGLSDAAHIESLQEKSQCALEEYVRSQYPNQPSRFGKLLLRLPSLRTVSSSVIEQLFFVRLVGKTPIETLIRDMLLSGSSFNWPYMSIQCS
- Luc. act., normalized to lacZ (mDio2 promoter): 15.7
- Normalized Luc. act., normalized to control (mDio2 promoter): 1.0
- mDio2 promoter reporter activity (mDio2 promoter): 1.00
- Luc. act., normalized to lacZ (mPer1 promoter): 283.8
- Normalized Luc. act., normalized to control (mPer1 promoter): 2.0
- luciferase activity normalized to lacZ activity and to a control, mPer1 (mPer1 promoter): 1.97
- Luc. act., normalized to lacZ (RevErba promoter): 18.5
- Normalized Luc. act., normalized to control (RevErba promoter): 0.7
- negative reciprocal of normalized Luc. act. (fold repression; Table 33) (RevErba promoter): −1.51
- normalized Luc. act. on a logarithmic scale (column without head, Table 33) (RevErba promoter): −0.18
- mRevErba promoter reporter activity (RevErba promoter): 0.66
- Luc. act., normalized to lacZ (mADRP promoter): 393.3
- Normalized Luc. act., normalized to control (mADRP promoter): 0.8
- mADRP promoter reporter activity (mADRP promoter): 0.79
- Luc. act., normalized to lacZ (hMDR1 promoter): 0.3
- Normalized Luc. act., normalized to control (hMDR1 promoter): 0.9
- hMDR1 promoter reporter activity (hMDR1 promoter): 0.92

B2: CTF2: COUP-TF2 (NR2F2), cDNA driver (protein, UniProt P24468 1-414, looked up)
COUP transcription factor 2: MAMVVSTWRDPQDEVPGSQGSQASQAPPVPGPPPGAPHTPQTPGQGGPASTPAQTAAGGQGGPGGPGSDKQQQQQHIECVVCGDKSSGKHYGQFTCEGCKSFFKRSVRRNLSYTCRANRNCPIDQHHRNQCQYCRLKKCLKVGMRREAVQRGRMPPTQPTHGQFALTNGDPLNCHSYLSGYISLLLRAEPYPTSRFGSQCMQPNNIMGIENICELAARMLFSAVEWARNIPFFPDLQITDQVALLRLTWSELFVLNAAQCSMPLHVAPLLAAAGLHASPMSADRVVAFMDHIRIFQEQVEKLKALHVDSAEYSCLKAIVLFTSDACGLSDVAHVESLQEKSQCALEEYVRSQYPNQPTRFGKLLLRLPSLRTVSSSVIEQLFFVRLVGKTPIETLIRDMLLSGSSFNWPYMAIQ
- Luc. act., normalized to lacZ (mDio2 promoter): 18.8
- Normalized Luc. act., normalized to control (mDio2 promoter): 1.2
- mDio2 promoter reporter activity (mDio2 promoter): 1.20
- Luc. act., normalized to lacZ (mPer1 promoter): 346.6
- Normalized Luc. act., normalized to control (mPer1 promoter): 2.4
- luciferase activity normalized to lacZ activity and to a control, mPer1 (mPer1 promoter): 2.41
- Luc. act., normalized to lacZ (RevErba promoter): 27.2
- Normalized Luc. act., normalized to control (RevErba promoter): 1.0
- negative reciprocal of normalized Luc. act. (fold repression; Table 33) (RevErba promoter): −1.027
- normalized Luc. act. on a logarithmic scale (column without head, Table 33) (RevErba promoter): −0.01
- mRevErba promoter reporter activity (RevErba promoter): 0.97
- Luc. act., normalized to lacZ (mADRP promoter): 893.8
- Normalized Luc. act., normalized to control (mADRP promoter): 1.8
- mADRP promoter reporter activity (mADRP promoter): 1.80
- Luc. act., normalized to lacZ (hMDR1 promoter): 0.3
- Normalized Luc. act., normalized to control (hMDR1 promoter): 1.0
- hMDR1 promoter reporter activity (hMDR1 promoter): 1.01

B3: ERR3: Estrogen Related Receptor γ (NR3B3, ERRg), cDNA driver (protein, UniProt P62508 1-458, looked up)
Estrogen-related receptor …: MDSVELCLPESFSLHYEEELLCRMSNKDRHIDSSCSSFIKTEPSSPASLTDSVNHHSPGGSSDASGSYSSTMNGHQNGLDSPPLYPSAPILGGSGPVRKLYDDCSSTIVEDPQTKCEYMLNSMPKRLCLVCGDIASGYHYGVASCEACKAFFKRTIQGNIEYSCPATNECEITKRRRKSCQACRFMKCLKVGMLKEGVRLDRVRGGRQKYKRRIDAENSPYLNPQLVQPAKKPYNKIVSHLLVAEPEKIYAMPDPTVPDSDIKALTTLCDLADRELVVIIGWAKHIPGFSTLSLADQMSLLQSAWMEILILGVVYRSLSFEDELVYADDYIMDEDQSKLAGLLDLNNAILQLVKKYKSMKLEKEEFVTLKAIALANSDSMHIEDVEAVQKLQDVLHEALQDYEAGQHMEDPRRAGKMLMTLPLLRQTSTKAVQHFYNIKLEGKVPMHKLFLEMLEAKV
- Luc. act., normalized to lacZ (mDio2 promoter): 85.6
- Normalized Luc. act., normalized to control (mDio2 promoter): 5.4
- mDio2 promoter reporter activity (mDio2 promoter): 5.45
- Luc. act., normalized to lacZ (mPer1 promoter): 226.8
- Normalized Luc. act., normalized to control (mPer1 promoter): 1.6
- luciferase activity normalized to lacZ activity and to a control, mPer1 (mPer1 promoter): 1.58
- Luc. act., normalized to lacZ (RevErba promoter): 123.1
- Normalized Luc. act., normalized to control (RevErba promoter): 4.4
- normalized Luc. act. on a logarithmic scale (column without head, Table 33) (RevErba promoter): 0.64
- mRevErba promoter reporter activity (RevErba promoter): 4.40
- mADRP promoter reporter activity (mADRP promoter): 3.37
- Luc. act., normalized to lacZ (hMDR1 promoter): 0.2
- Normalized Luc. act., normalized to control (hMDR1 promoter): 0.8
- hMDR1 promoter reporter activity (hMDR1 promoter): 0.79
